The record followed here is paper PMC2871031 (Structure (London, England : 1993), 2010).

Data set [1] addresses ClpA-Δ153 (N-domain-deleted form of ClpA) (E. coli) (UniProt P0ABH9).
The target of data set [2] is ClpA (wild type), ATPγS-assembled hexamer (E. coli) (UniProt P0ABH9).
The target of data set [3] is ClpA-Δ15 (linker deletion mutant, residues 145 to 159 deleted) (E. coli) (UniProt P0ABH9).
The target in data set [4] is ClpA-Δ10 (linker deletion mutant, residues 145 to 154 deleted) (E. coli) (UniProt P0ABH9).
Data set [5] concerns the molecule itself. Kind of data set: cryo-electron microscopy with 2D averaging and variance maps of side-views.
Data set [6] has as its target T1, ClpP peptidase (tetradecamer) (UniProt P0A6G7 15-207). The description is as above.
The data set “cryo-EM structure” concerns the molecule itself. As to the kind of experiment: cryo-EM structure.
The target in data set [7] is T1, ClpP peptidase (tetradecamer). Kind of data set: cryo-EM structure.

Where “and” joins values, the source holds several entries; their conditions need not be identical. Equal entries are not always repeated.

T1 sequence (P0A6G7 15-207): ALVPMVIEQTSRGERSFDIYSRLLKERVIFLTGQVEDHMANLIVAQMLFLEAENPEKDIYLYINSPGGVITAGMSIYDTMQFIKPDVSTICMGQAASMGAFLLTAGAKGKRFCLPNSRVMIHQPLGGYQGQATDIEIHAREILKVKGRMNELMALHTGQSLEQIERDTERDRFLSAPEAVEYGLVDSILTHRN

Regarding GFP-SsrA, the Km of GFP-SsrA degradation, 37 °C (μM protein monomer) in data set [1] was 1; in data set [2] it was 1.7; in data set [3], 1.5; in data set [4], 1.7.
As to α-casein (natural protein), the Km of α-casein degradation, 37 °C (μM protein monomer) was found to be 0.2 in data set [2] and 0.35 in data set [3].

B1: ClpA-Δ15 (linker deletion mutant, residues 145 to 159 deleted) (enzyme, E. coli, UniProt P0ABH9 1-758, looked up)
chain: MLNQELELSLNMAFARAREHRHEFMTVEHLLLALLSNPSAREALEACSVDLVALRQELEAFIEQTTPVLPASEEERDTQPTLSFQRVLQRAVFHVQSSGRNEVTGANVLVAIFSEQESQAAYLLRKHEVSRLDVVNFISHGTRKEEQAGGEERMENFTTNLNQLARVGGIDPLIGREKELERAIQVLCRRRKNNPLLVGESGVGKTAIAEGLAWRIVQGDVPEVMADCTIYSLDIGSLLAGTKYRGDFEKRFKALLKQLEQDTNSILFIDEIHTIIGAGAASGGQVDAANLIKPLLSSGKIRVIGSTTYQEFSNIFEKDRALARRFQKIDITEPSIEETVQIINGLKPKYEAHHDVRYTAKAVRAAVELAVKYINDRHLPDKAIDVIDEAGARARLMPVSKRKKTVNVADIESVVARIARIPEKSVSQSDRDTLKNLGDRLKMLVFGQDKAIEALTEAIKMARAGLGHEHKPVGSFLFAGPTGVGKTEVTVQLSKALGIELLRFDMSEYMERHTVSRLIGAPPGYVGFDQGGLLTDAVIKHPHAVLLLDEIEKAHPDVFNILLQVMDNGTLTDNNGRKADFRNVVLVMTTNAGVRETERKSIGLIHQDNSTDAMEEIKKIFTPEFRNRLDNIIWFDHLSTDVIHQVVDKFIVELQVQLDQKGVSLEVSQEARNWLAEKGYDRAMGARPMARVIQDNLKKPLANELLFGSLVDGGQVTVALDKEKNELTYGFQSAQKHKAEAAH
As a reminder, the stoichiometry N is a count of units in the complex or per binding partner. Turning to B1, the “stoichiometry N” value is 6 subunits in data set [5]; 1 ClpA hexamers per ClpP tetradecamer and 2 ClpA hexamers per ClpP tetradecamer in data set [6].

B2: ClpA-Δ10 (linker deletion mutant, residues 145 to 154 deleted) (enzyme, E. coli, UniProt P0ABH9 1-758, looked up)
chain: MLNQELELSLNMAFARAREHRHEFMTVEHLLLALLSNPSAREALEACSVDLVALRQELEAFIEQTTPVLPASEEERDTQPTLSFQRVLQRAVFHVQSSGRNEVTGANVLVAIFSEQESQAAYLLRKHEVSRLDVVNFISHGTRKSQPNSEEQAGGEERMENFTTNLNQLARVGGIDPLIGREKELERAIQVLCRRRKNNPLLVGESGVGKTAIAEGLAWRIVQGDVPEVMADCTIYSLDIGSLLAGTKYRGDFEKRFKALLKQLEQDTNSILFIDEIHTIIGAGAASGGQVDAANLIKPLLSSGKIRVIGSTTYQEFSNIFEKDRALARRFQKIDITEPSIEETVQIINGLKPKYEAHHDVRYTAKAVRAAVELAVKYINDRHLPDKAIDVIDEAGARARLMPVSKRKKTVNVADIESVVARIARIPEKSVSQSDRDTLKNLGDRLKMLVFGQDKAIEALTEAIKMARAGLGHEHKPVGSFLFAGPTGVGKTEVTVQLSKALGIELLRFDMSEYMERHTVSRLIGAPPGYVGFDQGGLLTDAVIKHPHAVLLLDEIEKAHPDVFNILLQVMDNGTLTDNNGRKADFRNVVLVMTTNAGVRETERKSIGLIHQDNSTDAMEEIKKIFTPEFRNRLDNIIWFDHLSTDVIHQVVDKFIVELQVQLDQKGVSLEVSQEARNWLAEKGYDRAMGARPMARVIQDNLKKPLANELLFGSLVDGGQVTVALDKEKNELTYGFQSAQKHKAEAAH
With B2, the “stoichiometry N” value in data set [5] was 6 subunits; in data set [6] it was 1 ClpA hexamers per ClpP tetradecamer and 2 ClpA hexamers per ClpP tetradecamer.

B3: ClpA (wild type), ATPγS-assembled hexamer (enzyme, E. coli, UniProt P0ABH9 1-758, looked up)
chain: MLNQELELSLNMAFARAREHRHEFMTVEHLLLALLSNPSAREALEACSVDLVALRQELEAFIEQTTPVLPASEEERDTQPTLSFQRVLQRAVFHVQSSGRNEVTGANVLVAIFSEQESQAAYLLRKHEVSRLDVVNFISHGTRKDEPTQSSDPGSQPNSEEQAGGEERMENFTTNLNQLARVGGIDPLIGREKELERAIQVLCRRRKNNPLLVGESGVGKTAIAEGLAWRIVQGDVPEVMADCTIYSLDIGSLLAGTKYRGDFEKRFKALLKQLEQDTNSILFIDEIHTIIGAGAASGGQVDAANLIKPLLSSGKIRVIGSTTYQEFSNIFEKDRALARRFQKIDITEPSIEETVQIINGLKPKYEAHHDVRYTAKAVRAAVELAVKYINDRHLPDKAIDVIDEAGARARLMPVSKRKKTVNVADIESVVARIARIPEKSVSQSDRDTLKNLGDRLKMLVFGQDKAIEALTEAIKMARAGLGHEHKPVGSFLFAGPTGVGKTEVTVQLSKALGIELLRFDMSEYMERHTVSRLIGAPPGYVGFDQGGLLTDAVIKHPHAVLLLDEIEKAHPDVFNILLQVMDNGTLTDNNGRKADFRNVVLVMTTNAGVRETERKSIGLIHQDNSTDAMEEIKKIFTPEFRNRLDNIIWFDHLSTDVIHQVVDKFIVELQVQLDQKGVSLEVSQEARNWLAEKGYDRAMGARPMARVIQDNLKKPLANELLFGSLVDGGQVTVALDKEKNELTYGFQSAQKHKAEAAH
Take B3: the “stoichiometry N” value in “cryo-EM structure” is 6 subunits; in data set [7] it was 1 ClpA hexamers per ClpP tetradecamer.
